Results from patent US10105442B2, “Treatment of diabetes type 1 using GLP-1 and anti-IL-21” (Novo Nordisk A/S, priority 2014, dated 2018).

Biological target: murine IL-21 (Mus musculus, UniProt Q9ES17)
Assay: Inhibition of IL-21 mediated STAT-3 phosphorylation in BaF3/KZ134/hIL-21R cells (Assay III)
Type: cell-based
Conditions: selected antibody clone
Description: Assay (III): Inhibition of IL-21 Mediated STAT-3 Phosphorylation.
The ability of anti-IL-21 antibodies to neutralize IL-21 can be measured in a cell based assay using phosphorylation of STAT3 as read-out. BaF3 cells transfected with IL-21 receptor (IL-21R) are used and as IL-21 induces STAT3 phosphorylation reduction hereof by an anti-IL-21 antibody reflects the IL-21 neutralization activity.
Reduction in murine IL-21 activity in the presence of antibody containing supernatant was determined by measuring the level of STAT3-phosphorylation following ligand-receptor interaction in BaF3/KZ134/hIL-21R cells.
Relative neutralization activity was determined based on the percentage decrease in phosphorylated-STAT3 levels relative to control cells incubated with ligand alone. Baf3/KZ134/hIL-21R cells are plated in 96-well round-bottom tissue culture plates at a density of 50,000 cells/well. Murine IL-21 was pre-incubated with the supernatant from each tested well before transfer to the plated cells. The reactions were stopped and cells lyzed according to the manufacturer's instructions, (BIO-RAD Laboratories). Supernatants were collected, mixed with assay buffer and stored. […] The level of phosphorylated-STAT3 was determined on an array reader (BIO-PLEX, BIO-RAD Laboratories) according to the manufacturer's instructions. […]

B1: Anti-IL-21: Mouse surrogate anti-IL-21 antibody, mIgG1/kappa isotype, VL SEQ ID NO:26 and VH SEQ ID NO:27, raised against recombinant mouse IL-21 (antibody, V domains shown)
VH: MNFGPSLIFLVLILKGVQCEVQLVESGGGLVKPGGSLKLSCAASGFTFNRYSMSWVRQSPEKRLEWVAEISVGGSYTQYVDIVTGRFTISRDNAKNTLYLEMSSLRSEDTAMYYCARLYYSGSGDSYYYAMDYWGQGTSVTVSS
VL: MDFQVQIFSFLLISASVILSRGQTVLIQSPAIMSASPGEKVTMTCSASSSVSYMHWYQQKSGTSPKRWIYDTSKLASGVPARFSGSGSGTSYSLTISSMEAEDAATYYCQQWNSNPPTFGGGTKLEMK
With B1 the “Neutralizing activity in STAT3 phosphorylation assay (in words)” value was “strong neutralizing activity”.
